# T1: REST-FL (human, UniProt Q13127 1-1097)
# T1 sequence: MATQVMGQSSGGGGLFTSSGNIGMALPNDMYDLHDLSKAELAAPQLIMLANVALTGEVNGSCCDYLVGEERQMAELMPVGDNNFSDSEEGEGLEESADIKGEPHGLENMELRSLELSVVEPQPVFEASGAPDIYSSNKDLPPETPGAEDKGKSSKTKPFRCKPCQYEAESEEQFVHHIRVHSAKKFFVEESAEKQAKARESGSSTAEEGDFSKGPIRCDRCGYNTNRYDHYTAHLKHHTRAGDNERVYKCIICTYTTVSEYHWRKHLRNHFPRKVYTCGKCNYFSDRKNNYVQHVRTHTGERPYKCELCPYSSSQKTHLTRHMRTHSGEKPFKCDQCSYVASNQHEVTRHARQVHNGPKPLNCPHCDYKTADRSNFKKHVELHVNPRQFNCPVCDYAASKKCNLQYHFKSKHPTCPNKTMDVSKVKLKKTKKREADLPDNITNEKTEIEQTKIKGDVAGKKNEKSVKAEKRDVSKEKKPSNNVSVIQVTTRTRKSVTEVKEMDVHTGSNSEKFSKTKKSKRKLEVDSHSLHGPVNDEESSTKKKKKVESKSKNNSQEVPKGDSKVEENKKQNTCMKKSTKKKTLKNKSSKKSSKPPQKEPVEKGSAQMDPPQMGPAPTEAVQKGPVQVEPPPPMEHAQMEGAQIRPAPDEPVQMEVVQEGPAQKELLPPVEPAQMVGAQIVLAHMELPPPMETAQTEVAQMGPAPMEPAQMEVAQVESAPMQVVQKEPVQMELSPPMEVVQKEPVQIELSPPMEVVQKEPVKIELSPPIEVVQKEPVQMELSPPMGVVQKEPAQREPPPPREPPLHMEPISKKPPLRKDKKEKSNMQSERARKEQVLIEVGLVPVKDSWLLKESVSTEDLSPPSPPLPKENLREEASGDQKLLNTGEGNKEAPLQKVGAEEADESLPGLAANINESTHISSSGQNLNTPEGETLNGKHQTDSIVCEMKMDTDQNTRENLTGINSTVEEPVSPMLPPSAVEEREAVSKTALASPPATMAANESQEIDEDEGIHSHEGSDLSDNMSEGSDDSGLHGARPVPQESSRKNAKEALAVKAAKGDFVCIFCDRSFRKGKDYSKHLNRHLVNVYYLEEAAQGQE
# T2: REST-N62 (REST4-S3) (human, UniProt A0A087X1C2 1-340)
# T2 sequence: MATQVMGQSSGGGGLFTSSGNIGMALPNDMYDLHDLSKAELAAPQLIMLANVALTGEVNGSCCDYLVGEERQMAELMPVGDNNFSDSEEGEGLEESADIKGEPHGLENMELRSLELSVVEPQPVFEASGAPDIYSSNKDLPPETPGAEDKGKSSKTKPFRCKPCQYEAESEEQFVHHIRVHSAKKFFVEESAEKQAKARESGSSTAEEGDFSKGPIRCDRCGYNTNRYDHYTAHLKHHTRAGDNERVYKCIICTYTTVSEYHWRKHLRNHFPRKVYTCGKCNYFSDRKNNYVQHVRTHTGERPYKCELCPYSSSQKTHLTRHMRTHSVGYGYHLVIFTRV
# B1: NRSE (RE1) 21 bp duplex (dsDNA)
# DNA 1: TTCAGCACCATGGACAGCGCC
# DNA 2: GGCGCTGTCCATGGTGCTGAA
# How the values were obtained:
# REST-FL = biological target: T1, REST-FL; test: fluorescence anisotropy
# REST-N62 (REST4-S3) = biological target: T2, REST-N62 (REST4-S3); test: fluorescence anisotropy
binder,measurement,setting,value
B1,Kd,REST-FL,5.7 ± 0.6 nM
same,binding result,REST-N62 (REST4-S3),no binding

# — PMC9860152
